T1: human zB7H6 (full-length, on cells) (human, UniProt Q68D85 25-454)
T1 construct: also called hzB7H6; hypothetical protein DKFZP686I21167
T1 sequence: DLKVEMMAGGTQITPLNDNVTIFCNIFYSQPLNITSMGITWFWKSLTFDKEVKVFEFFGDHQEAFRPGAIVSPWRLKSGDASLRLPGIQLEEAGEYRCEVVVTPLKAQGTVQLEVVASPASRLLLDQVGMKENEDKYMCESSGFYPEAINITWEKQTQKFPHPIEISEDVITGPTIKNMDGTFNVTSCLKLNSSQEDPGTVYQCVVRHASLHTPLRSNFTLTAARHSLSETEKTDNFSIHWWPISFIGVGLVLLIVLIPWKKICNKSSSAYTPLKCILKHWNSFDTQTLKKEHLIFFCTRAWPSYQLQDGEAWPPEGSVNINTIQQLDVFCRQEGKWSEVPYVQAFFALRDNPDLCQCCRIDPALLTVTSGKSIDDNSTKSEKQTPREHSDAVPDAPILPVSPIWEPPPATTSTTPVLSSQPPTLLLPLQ

T2: NKp30/mFc2
T2 construct: also called soluble NKp30 fusion protein; NKp30/mFc2-biotin
T2 chain: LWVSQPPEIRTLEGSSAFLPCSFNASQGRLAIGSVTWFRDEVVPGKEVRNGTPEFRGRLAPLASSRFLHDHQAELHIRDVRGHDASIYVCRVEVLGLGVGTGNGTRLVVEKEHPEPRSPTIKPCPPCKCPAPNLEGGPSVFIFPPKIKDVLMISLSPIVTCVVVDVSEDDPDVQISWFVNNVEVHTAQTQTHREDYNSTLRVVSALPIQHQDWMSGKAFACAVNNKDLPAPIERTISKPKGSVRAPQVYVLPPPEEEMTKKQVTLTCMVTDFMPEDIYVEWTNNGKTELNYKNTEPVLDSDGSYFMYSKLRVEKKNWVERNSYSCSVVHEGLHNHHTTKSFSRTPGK


Tests used:
[1] = target: T1, human zB7H6 (full-length, on cells); experiment: competition FACS on K562 cells against NKp30/mFc2, 100-fold mass excess
Description: K562 cells were probed by FACS with a soluble form of NKp30 (NKp30/mFc2 (SEQ ID NO:8), containing the extracellular domain of NKp30 and a murine Fc fragment). K562 cells were resuspended in PBS/2% FBS at a concentration of 1.6×10⁶ cells/ml (160,000 cells/sample). 100 μl samples were aliquoted and 1 μl of whole human IgG (Jackson #009-000-003) added to each. NKp30/mFc2 probe was added at a concentration of 2 μg/ml together with 10 μg/ml Heparin and 100-fold mass excess of a VASP protein (NKp30/VASP or a control VASP protein, human zB7R1/VASP (SEQ ID NO:12) or B7-DC/VASP (SEQ ID NO:13)). Cells were incubated for 1 hour on ice and washed with 2 ml cold PBS. Washed cells were resuspended in 100 μl of PBS/2% FBS with 1 μl PE anti-mIgG (Jackson 115-116-071) and incubated for 30 minutes on ice. Cells were then washed twice with 2 ml cold PBS, resuspended in 500 μl of PBS, and analyzed for PE staining on a FACSCalibur.

NKp30/mFc2 = target: T2, NKp30/mFc2; experiment: competition FACS: soluble zB7H6/VASP at 100-fold mass excess competed NKp30/mFc2-biotin binding to K562, 293F and P815 zB7H6 cells
Description: Cells were resuspended in PBS/2% FBS at a concentration of 1.5×10⁶ cells/ml (150,000 cells/sample). 100 μl samples were aliquoted with 100 μg/ml of whole human IgG (Jackson #009-000-003) included for Fc receptor blocking. NKp30/mFc2-biotin probe was added at a concentration of 2 μg/ml and 100-fold mass excess of a VASP protein (NKp30/VASP or human zB7H6/VASP) or a control VASP protein (B7H3/VASP). Cells were incubated for 1 hour on ice and washed with 2 ml cold PBS. Washed cells were resuspended in 100 μl of PBS/2% FBS with streptavidin-PE (BD:554061) at 1 μg/ml and incubated for 15 minutes on ice. Cells were then washed with 1 ml cold PBS, resuspended in 250 μl of PBS, and analyzed for PE staining on a FACSCalibur.

binding result [1] | binding result (NKp30/mFc2) | Binder
binds | – | NKp30/VASP (receptor, no limits or signal peptide residues stated; also called soluble NKp30/VASP A1683F; NKp30/VASP-A647) LWVSQPPEIRTLEGSSAFLPCSFNASQGRLAIGSVTWFRDEVVPGKEVRNGTPEFRGRLAPLASSRFLHDHQAELHIRDVRGHDASIYVCRVEVLGLGVGTGNGTRLVVEKEHPEPRSGSGGSGGSDLQRVKQELLEEVKKELQKVKEEIIEAFVQELRGSGGHHHHHH
– | binds | hzB7H6/VASP-His6 (ligand, also called human zB7H6/VASP; zB7H6 C(VASP)H6) DLKVEMMAGGTQITPLNDNVTIFCNIFYSQPLNITSMGITWFWKSLTFDKEVKVFEFFGDHQEAFRPGAIVSPWRLKSGDASLRLPGIQLEEAGEYRCEVVVTPLKAQGTVQLEVVASPASRLLLDQVGMKENEDKYMCESSGFYPEAINITWEKQTQKFPHPIEISEDVITGPTIKNMDGTFNVTSCLKLNSSQEDPGTVYQCVVRHASLHTPLRSNFTLTAARHSLSETEKTDNFSIHWWPEPRSGSGGSGGSDLQRVKQELLEEVKKELQKVKEEIIEAFVQELRGSGGHHHHHH

Reference: patent US20180258172A1 (ZymoGenetics, published 2018)
